The values that follow come from US20050054026A1.

The target in this test is 9-fluorenylmethyloxycarbonyl (Fmoc)-glycyl-prolyl-glutamyl-glycyl-isoleucyl-alanyl-glycyl-tryptophanyl-glycine (Gly-Pro-Gln-Gly-Ile-Ala-Gly-Trp-Gly) (Artificial Sequence). The settings on record: scale: fold.

Take aminopeptidase-1 (enzyme): the degradation rate of Fmoc-… per unit weight of enzyme and unit time (first 15 minutes, RP-HPLC) was found to be 14.2.
Take carboxypeptidase A (enzyme): the degradation rate of Fmoc-… per unit weight of enzyme and unit time (first 15 minutes, RP-HPLC) turned out to be 38.8.
Under collagenase (enzyme) stands 26.9.
